Test results taken from patent US20170088610A1.

Key:
[1] = target: human nerve growth factor (human), P01138
[2] = target: human nerve growth factor (human), P01138; assay: cell-based or functional assay
[3] = target: human nerve growth factor (human), P01138; remark: listed apart in the source

Chain of human nerve growth factor (human), P01138 (P01138 122-241 limits assumed): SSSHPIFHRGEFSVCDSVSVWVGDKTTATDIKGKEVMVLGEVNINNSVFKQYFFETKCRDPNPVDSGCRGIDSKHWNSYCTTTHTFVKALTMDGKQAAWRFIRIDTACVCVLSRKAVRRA

B1: antibody E3 (full antibody) (antibody, human IgG2, kappa)
heavy: QVQLQESGPGLVKPSETLSLTCTVSGFSLIGYDLNWIRQPPGKGLEWIGIIWGDGTTDYNSAVKSRVTISKDTSKNQFSLKLSSVTAADTAVYYCARGGYWYATSYYFDYWGQGTLVTVSSASTKGPSVFPLAPCSRSTSESTAALGCLVKDYFPEPVTVSWNSGALTSGVHTFPAVLQSSGLYSLSSVVTVPSSNFGTQTYTCNVDHKPSNTKVDKTVERKCCVECPPCPAPPVAGPSVFLFPPKPKDTLMISRTPEVTCVVVDVSHEDPEVQFNWYVDGVEVHNAKTKPREEQFNSTFRVVSVLTVVHQDWLNGKEYKCKVSNKGLPSSIEKTISKTKGQPREPQVYTLPPSREEMTKNQVSLTCLVKGFYPSDIAVEWESNGQPENNYKTTPPMLDSDGSFFLYSKLTVDKSRWQQGNVFSCSVMHEALHNHYTQKSLSLSPGK
light: not shown
modifications: not checked
Binder B1 has an IC50 (read off the curve), NGF-dependent survival of E13.5 trigeminal neurons (0.4 ng/ml human NGF, 48 h) [1] of 8 pM, an NGF-elicited survival of E17/18 trigeminal neurons [2] of 20 nM and an IC50 (read off the curve), NGF-dependent survival of E13.5 mouse trigeminal neurons (0.4 ng/ml human NGF, 48 h) (nM binding sites) [3] of 0.02.
